# Data as given in patent publication US20200392227A1 (LYVGEN BIOPHARMA, published 2020).
# Like-named read-outs stand apart in the source and are kept apart here.
# T1: human FcγRIIA(R131) expressed on CHO cells (human, UniProt P12318 34-317)
# T1 construct: whole, on cells
# T1 sequence (looked up): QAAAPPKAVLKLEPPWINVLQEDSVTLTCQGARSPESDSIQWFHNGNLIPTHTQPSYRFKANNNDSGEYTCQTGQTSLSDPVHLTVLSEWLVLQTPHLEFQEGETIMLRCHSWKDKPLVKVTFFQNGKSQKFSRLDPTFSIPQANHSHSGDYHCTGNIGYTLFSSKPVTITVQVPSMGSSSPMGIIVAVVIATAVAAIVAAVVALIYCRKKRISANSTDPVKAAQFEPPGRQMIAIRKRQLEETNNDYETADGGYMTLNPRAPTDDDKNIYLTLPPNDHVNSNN
# T2: human FcRIIB/C protein (MednaBio, E1034) (human, UniProt P31994 43-217, limits assumed)
# T2 construct: Bought as FcRIIB/C; also called FcγRIIB; CD32B
# T2 sequence (looked up): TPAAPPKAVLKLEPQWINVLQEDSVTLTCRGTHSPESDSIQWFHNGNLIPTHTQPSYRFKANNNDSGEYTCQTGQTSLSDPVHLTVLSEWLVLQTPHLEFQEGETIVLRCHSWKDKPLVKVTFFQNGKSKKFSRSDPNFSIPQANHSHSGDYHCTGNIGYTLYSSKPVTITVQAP
# T3: human FcRIIA protein (MednaBio, E1033) (human, UniProt P12318 34-218, limits assumed)
# T3 construct: Bought; also called FcγRIIA
# T3 sequence (looked up): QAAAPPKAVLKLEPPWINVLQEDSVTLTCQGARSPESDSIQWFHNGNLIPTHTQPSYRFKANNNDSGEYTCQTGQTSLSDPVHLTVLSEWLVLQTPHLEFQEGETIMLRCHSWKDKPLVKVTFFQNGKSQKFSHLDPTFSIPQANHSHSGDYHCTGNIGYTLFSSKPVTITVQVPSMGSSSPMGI
# B1: anti-CD137 IgG1 with Fc variant G1mAA (antibody)
# heavy: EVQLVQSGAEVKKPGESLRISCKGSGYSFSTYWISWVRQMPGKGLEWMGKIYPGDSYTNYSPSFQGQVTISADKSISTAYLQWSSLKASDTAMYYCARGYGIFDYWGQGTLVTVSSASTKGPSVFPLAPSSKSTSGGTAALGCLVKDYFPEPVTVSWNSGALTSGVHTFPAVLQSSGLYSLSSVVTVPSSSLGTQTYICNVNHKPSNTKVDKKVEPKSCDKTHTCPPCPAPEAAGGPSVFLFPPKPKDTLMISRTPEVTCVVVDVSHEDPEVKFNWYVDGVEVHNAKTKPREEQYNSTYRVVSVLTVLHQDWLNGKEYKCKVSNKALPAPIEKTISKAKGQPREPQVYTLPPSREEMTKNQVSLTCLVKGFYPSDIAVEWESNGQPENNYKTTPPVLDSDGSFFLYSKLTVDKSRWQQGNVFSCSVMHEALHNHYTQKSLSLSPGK
# light: SYELTQPPSVSVSPGQTASITCSGDNIGDQYAHWYQQKPGQSPVLVIYQDKNRPSGIPERFSGSNSGNTATLTISGTQAMDEADYYCATYTGFGSLAVFGGGTKLTVLGQPKAAPSVTLFPPSSEELQANKATLVCLISDFYPGAVTVAWKADSSPVKAGVETTTPSKQSNNKYAASSYLSLTPEQWKSHRSYSCQVTHEGSTVEKTVAPTECS
# notes: copies: 2 + 2
# B2: anti-CD137 IgG4 with Fc variant G4m30 (antibody)
# heavy: EVQLVQSGAEVKKPGESLRISCKGSGYSFSTYWISWVRQMPGKGLEWMGKIYPGDSYTNYSPSFQGQVTISADKSISTAYLQWSSLKASDTAMYYCARGYGIFDYWGQGTLVTVSSASTKGPSVFPLAPCSRSTSESTAALGCLVKDYFPEPVTVSWNSGALTSGVHTFPAVLQSSGLYSLSSVVTVPSSSLGTKTYTCNVDHKPSNTKVDKRVESKYGPPCPPCPAPEFLPSVFLFPPKPKDTLMISRTPEVTCVVVDVSQEDPEVQFNWYVDGVEVHNAKTKPREEQFNSTYRVVSVLTVLHQDWLNGKEYKCKVSNKGLPSSIEKTISKAKGQPREPQVYTLPPSQEEMTKNQVSLTCLVKGFYPSDIAVEWESNGQPENNYKTTPPVLDSDGSFFLYSRLTVDKSRWQEGNVFSCSVMHEALHNHYTQKSLSLSLGK
# light: SYELTQPPSVSVSPGQTASITCSGDNIGDQYAHWYQQKPGQSPVLVIYQDKNRPSGIPERFSGSNSGNTATLTISGTQAMDEADYYCATYTGFGSLAVFGGGTKLTVLGQPKAAPSVTLFPPSSEELQANKATLVCLISDFYPGAVTVAWKADSSPVKAGVETTTPSKQSNNKYAASSYLSLTPEQWKSHRSYSCQVTHEGSTVEKTVAPTECS
# notes: also called G430; copies: 2 + 2
# Legend:
# [1] = molecular target: T1, human FcγRIIA(R131) expressed on CHO …; assay: FACS, CHO cells expressing FcγRIIA(R131)
# Protocol: FIGS. 1A-1W are charts showing binding activity of various IgG variants as indicated to different types of Fcγ receptors expressed on CHO-K1 cells at the various concentrations as indicated. The concentrations of each IgG variant, from left to right, are 0 μg/ml, 0.3 μg/ml, 1 μg/ml, 3 μg/ml, and 10 μg/ml in FIGS. 1A-1C, 1E-J, 1L-1M, 1P-1R, and 1T-1V. For FIGS. 1D, 1K, 10, 1S, and 1w the bars, from left to right, correspond to the following concentrations of IgG variant: 0.3 μg/ml, 1 μg/ml, 3 μg/ml, and 10 μg/ml.
# For FACS analysis of the IgG mutants' binding to different FcγRs, FcγR overexpressing CHO cells were harvested using trypsin-EDTA and were suspended in cold staining buffer (3% BSA in PBS). Test IgG mutants, which were diluted in staining buffer, were added into the cells. The mixture was incubated 4° C. for 2 hours, and then washed twice with cold staining buffer and re-suspended in PE-labeled anti-human IgG followed by incubation at 4° C. for 2 hours. The mixture was washed twice with staining buffer and re-suspended in 2% PFA in PBS for FACS.
# [2] = molecular target: T2, human FcRIIB/C protein (MednaBio, E1034); assay: BLI
# Procedure, shortened: (§1)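 On an Octet Red96 System, anti-penta-HIS biosensors loaded with commercial human Fc receptor proteins were dipped into test IgG diluted 1:3 over 8 points from 300 nM. Fcγ receptor runs used pH 7.2 and FcRn runs used pH 6. Global fitting of these biolayer interferometry data gave the values for Kd, kon and koff, using a 1:1 binding model.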
# [3] = molecular target: T4, human FcRIIIA-V158 protein (MednaBio, E1035) (human, UniProt P08637 17-208); assay: BLI
# T4 construct: Bought; also called FcγRIIIA(V); FcgRIIIA(V)
# Procedure, shortened: as §1
# [4] = molecular target: T5, human FcRn protein (MednaBio, E1032) (human, UniProt P55899 24-297; P61769 21-119); assay: BLI
# T5 construct: Bought; assays at pH 6
# Procedure, shortened: as §1
# [5] = molecular target: T6, human FcRI protein (MednaBio, E1031) (human, UniProt P12314 16-288, limits assumed); assay: BLI
# T6 construct: Bought; loaded on anti-penta-HIS biosensors; also called FcγRI
# Procedure, shortened: as §1
# [6] = molecular target: T7, human FcRIIIA-F158 protein (MednaBio, E1036) (human, UniProt P08637 17-208); assay: BLI
# T7 construct: Bought; also called FcγRIIIA(F)
# Procedure, shortened: as §1
# [7] = molecular target: T3, human FcRIIA protein (MednaBio, E1033); assay: BLI
# Procedure, shortened: as §1
# [8] = molecular target: T8, human FcRIIIB protein (MednaBio, E1037) (human, UniProt O75015 17-200); assay: BLI
# T8 construct: Bought; also called FcγRIIIB; FcgRIIIB
# Procedure, shortened: as §1
# [9] = molecular target: T2, human FcRIIB/C protein (MednaBio, E1034); assay: BLI; remark: listed apart in the source
# Procedure, shortened: as §1
# [10] = molecular target: T4, human FcRIIIA-V158 protein (MednaBio, …); assay: BLI; remark: listed apart in the source
# Procedure, shortened: as §1
# [11] = molecular target: T5, human FcRn protein (MednaBio, E1032); assay: BLI; remark: listed apart in the source
# Procedure, shortened: as §1
# [12] = molecular target: T6, human FcRI protein (MednaBio, E1031); assay: BLI; remark: listed apart in the source
# Procedure, shortened: as §1
# [13] = molecular target: T7, human FcRIIIA-F158 protein (MednaBio, …); assay: BLI; remark: listed apart in the source
# Procedure, shortened: as §1
# [14] = molecular target: T3, human FcRIIA protein (MednaBio, E1033); assay: BLI; remark: listed apart in the source
# Procedure, shortened: as §1
# [15] = molecular target: T8, human FcRIIIB protein (MednaBio, E1037); assay: BLI; remark: listed apart in the source
# Procedure, shortened: as §1
# T8 sequence (O75015 17-200 limits assumed): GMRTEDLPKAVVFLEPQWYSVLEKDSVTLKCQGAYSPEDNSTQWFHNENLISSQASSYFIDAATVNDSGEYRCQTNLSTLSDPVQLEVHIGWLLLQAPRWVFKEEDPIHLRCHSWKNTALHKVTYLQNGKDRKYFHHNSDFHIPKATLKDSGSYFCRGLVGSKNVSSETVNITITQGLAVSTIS
# T5 sequence (P55899 24-297 limits assumed, form in doubt, chain 1 of 2): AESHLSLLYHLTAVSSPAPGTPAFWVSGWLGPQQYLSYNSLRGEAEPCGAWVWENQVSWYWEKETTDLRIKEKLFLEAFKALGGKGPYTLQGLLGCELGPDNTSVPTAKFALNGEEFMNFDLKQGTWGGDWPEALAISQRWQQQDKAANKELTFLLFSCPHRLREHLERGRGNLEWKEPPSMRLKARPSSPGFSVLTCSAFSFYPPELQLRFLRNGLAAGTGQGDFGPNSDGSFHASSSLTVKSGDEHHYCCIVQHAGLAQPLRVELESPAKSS
# T5 sequence (P61769 21-119 limits assumed, form in doubt, chain 2 of 2): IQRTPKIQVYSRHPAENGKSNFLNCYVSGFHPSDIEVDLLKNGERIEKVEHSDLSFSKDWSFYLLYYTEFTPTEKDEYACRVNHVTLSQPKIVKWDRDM
# T7 sequence (P08637 17-208 limits assumed): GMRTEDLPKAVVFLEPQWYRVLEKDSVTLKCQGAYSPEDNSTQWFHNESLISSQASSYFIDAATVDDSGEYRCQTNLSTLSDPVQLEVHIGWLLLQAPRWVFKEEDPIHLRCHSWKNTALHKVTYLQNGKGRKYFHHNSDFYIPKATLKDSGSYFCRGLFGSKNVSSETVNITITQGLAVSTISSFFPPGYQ
# T4 sequence (P08637 17-208 F176V): as the sequence (P08637 17-208 limits assumed) above, with F160V counted along it
# T6 sequence (P12314 16-288 limits assumed): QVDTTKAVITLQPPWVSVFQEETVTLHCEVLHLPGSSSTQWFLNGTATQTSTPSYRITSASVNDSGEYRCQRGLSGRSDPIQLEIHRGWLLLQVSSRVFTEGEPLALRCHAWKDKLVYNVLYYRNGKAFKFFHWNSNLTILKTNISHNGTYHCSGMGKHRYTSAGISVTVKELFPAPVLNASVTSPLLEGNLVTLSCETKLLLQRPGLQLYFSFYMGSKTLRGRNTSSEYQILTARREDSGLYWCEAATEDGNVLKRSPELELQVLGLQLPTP
binder,measurement,setting,value
B1,binding result,[1],no binding (tested: 10 ug/ml)
same,Kd,[2],0.656 µM
same,koff,[2],0.156 s⁻¹
same,kon,[2],238000 M⁻¹ s⁻¹
same,Kd,[3],0.456 µM
same,koff,[3],0.042 s⁻¹
same,kon,[3],92300 M⁻¹ s⁻¹
same,Kd,[4],0.0188 µM
same,koff,[4],0.015 s⁻¹
same,kon,[4],803000 M⁻¹ s⁻¹
same,Kd,[5],0.235 µM
same,koff,[5],0.0337 s⁻¹
same,kon,[5],144000 M⁻¹ s⁻¹
same,Kd,[6],1.5 µM
same,koff,[6],0.175 s⁻¹
same,kon,[6],116000 M⁻¹ s⁻¹
same,Kd,[7],0.8 µM
same,koff,[7],0.247 s⁻¹
same,kon,[7],310000 M⁻¹ s⁻¹
same,Kd,[8],0.556 µM
same,koff,[8],0.144 s⁻¹
same,kon,[8],258000 M⁻¹ s⁻¹
B2,binding result,[1],no binding (tested: 10 ug/ml)
same,Kd,[9],2.22 µM
same,koff,[9],0.118 s⁻¹
same,kon,[9],53600 M⁻¹ s⁻¹
same,Kd,[10],0.217 µM
same,koff,[10],0.309 s⁻¹
same,kon,[10],1.42e+06 M⁻¹ s⁻¹
same,Kd,[11],0.00761 µM
same,koff,[11],0.0133 s⁻¹
same,kon,[11],1.75e+06 M⁻¹ s⁻¹
same,Kd,[12],0.528 µM
same,koff,[12],0.193 s⁻¹
same,kon,[12],365000 M⁻¹ s⁻¹
same,Kd,[13],0.284 µM
same,koff,[13],0.303 s⁻¹
same,kon,[13],1.06e+06 M⁻¹ s⁻¹
same,Kd,[14],0.977 µM
same,koff,[14],0.234 s⁻¹
same,kon,[14],240000 M⁻¹ s⁻¹
same,Kd,[15],0.216 µM
same,koff,[15],0.297 s⁻¹
same,kon,[15],1.37e+06 M⁻¹ s⁻¹
